Data as given in the MegaScale stability set (Tsuboyama et al. 2023).

B1: 6NMW (parent)
chain: QGDIVVALYPYDGIHPDDLSFKKGEKMKVLEEHGEWWKAKSLLTKKEGFIPSNYVAKLN
B2: HHH_rd2_0155 (parent)
chain: PPDDERKKAEKAARSGNEEKAREILERLGYSEDEARELAKRLR

Variants of: B1
Assay: folding stability dG (cDNA display proteolysis); higher = more stable
Conditions: PBS, room temperature

Folding stability dG [kcal/mol], by site and new letter:
N59: W 3.08 | S 4.06 | K 3.53 | M 3.64 | D 3.82 | E 3.86 | V 3.95 | C 4.64 | Q 3.56 | Y 3.57 | F 3.48 | H 3.98 | I 4 | P 3.88 | A 3.8 | T 3.58 | L 3.64 | R 3.22 | G 4.04
K57: E 2.02 | N 2.44 | G 2.27 | I 3.23 | S 2.94 | F 3.96 | P 3.63 | W 3.87 | L 3.61 | H 3.25 | A 3.02 | C 3 | D 1.86 | T 2.85 | M 2.85 | V 3.39 | R 4.37 | Q 2.68 | Y 4.22
A56: S 3.31 | T 3.8 | W 2.92 | Y 3.8 | V 4.56 | R 4.18
L58: Q 2.38 | C 3.88 | P 2.38 | A 2.62 | V 3.89 | F 3.26 | D 2.77 | N 1.86 | T 2.86 | W 3.73 | Y 3.52 | K 1.65 | M 3.45 | S 2.55 | H 2.43 | E 2.77 | G 1.84 | I 3.89 | R 1.73

Variants of: B2
Assay: as above
Conditions: PBS, room temperature

Folding stability dG [kcal/mol]: each site, then its substitutions
A13: E 0.902 | S 1.13 | K 0.841 | I 1.46
Y30: G 0.222 | W 1.34 | F 1.94 | T 0.175 | V 0.808 | Q 0.238 | A 0.811 | M 1.74 | R 0.36 | K 0.407 | S 0.426 | I 1.06
K7: C 2.17 | I 2.08 | T 2.17 | Y 1.91 | N 1.85
A9: F 1.27 | Q 0.885 | H 1.18 | R 0.946 | W 1.53
K8: W 1.97 | E 2.26 | A 2.18 | M 2.18 | Q 2.19 | S 1.84 | Y 1.62
R6: Q 1.73 | P 0.99 | D 0.9 | W 3.4 | I 2.63
E37: D 1.73 | N 1.82 | H 1.85 | S 2.05 | M 2.16
A12: R 1.18 | S 1.34 | D 0.919 | T 1.24 | W 2.4 | K 1.01 | L 2.38 | P 0.925
P2: Q 2.15 | D 2.21 | E 2.24 | V 2.2 | K 2.11 | M 2.23 | S 1.97 | Y 2.29 | C 2.29 | I 2.25 | T 2.02
E19: P 1.61 | V 1.95 | K 2.18 | G 1.6 | R 2.16 | I 2.05
R36: F 1.56 | H 1.17 | C 0.956 | E 1.23 | L 1.51 | K 1.7
G29: F 0.708 | M 0.484 | H 0.665 | P -0.509 | N 0.552 | Y 0.196 | R 0.281
P1: R 2.21 | M 2.17 | Y 2.24 | N 2.41 | H 2.29 | E 2.2 | A 2.22 | G 2.26
A35: S 1.25 | E 0.141 | P -0.246 | R 0.564
R14: F 1.6 | N 1.3 | K 2.08 | D 1.01 | S 1.44 | T 1.41
E5: K 1.45 | D 2.01 | P 1.8 | F 1.88 | A 1.86 | Q 1.91 | S 1.8
R43: I 1.55 | F 2.48 | H 1.91 | A 2.29
E10: M 2.33 | L 2.38 | D 1.22 | A 2.3 | W 2.31 | R 2.03
K20: M 2.19 | R 1.89 | G 1.66 | V 2.05 | L 2.97 | T 1.77 | H 1.73 | E 2.11
K40: R 2.52 | T 1.63 | V 1.43 | P 0.1 | N 1.79 | W 2.08 | D 1.31 | H 2.39 | A 2.06 | Q 1.84
R27: N 1.7 | F 1.39 | Y 1.41 | E 1.1
E34: T 1.34 | H 1.38 | N 1.21 | A 1.78 | Q 1.81 | R 1.4
D4: H 1.88 | K 1.95 | S 2.16 | G 1.75 | F 2.02 | N 1.9 | I 2.17
S15: N 2.09 | M 2.26 | I 1.57 | H 1.83 | K 1.59 | L 1.95
L28: H 0.699 | N 0.822 | A 1.54 | W 1.47 | M 2.29
L38: E 1.46 | Y 1.67 | F 1.51 | V 1.12 | G -0.173
E23: V 1.72 | C 2.35 | G 1.4 | Q 2.18 | T 1.69
D33: E 2.19 | W 1.83 | I 1.87 | Q 2.09 | P 1.55 | H 1.86
E32: G 1.49 | L 1.66 | W 1.42 | V 2 | D 1.4
E18: P 1.23 | F 2.24 | H 1.44 | I 2.6 | G 1.19 | N 1.17 | W 2.32 | R 0.996
R41: F 1.91 | N 1.39 | H 1.66 | W 1.85 | Y 1.73 | G 0.69 | D 0.97
S31: Y 0.287 | A 1.28 | R 1.07 | D 1.36 | K 1.35 | P 1.46 | E 1.03
E26: Y 1.49 | M 3.05 | L 2.56 | T 1.93 | V 2.61 | Q 2.39 | I 2.65
L42: P 0.434 | H 0.87 | F 2.26 | N 0.469 | C 1.56 | I 1.57 | T 0.69
L25: A 0.215 | H -0.026 | N 0.253 | D 0.2
A39: R 0.796 | L 2.36 | F 1.52 | V 2.33 | S 1.02 | Y 1.66 | M 1.75
A21: K 0.641 | N 0.934 | D 0.869 | M 1.46
I24: K 0.671 | R 0.756 | S 0.659 | W 1.38 | Y 1.44 | Q 0.718 | T 0.469
N17: M 1.61 | A 1.4 | T 0.954 | V 0.993 | S 1.4 | Y 1.71
G16: R 1.11 | I 1.2 | Y 1.47 | T 0.813
K11: A 2.43 | G 1.39 | L 2.35 | S 1.97 | Y 2.14 | V 2.19 | W 2.14 | P 0.889 | Q 2.36 | N 2.11
R22: E 0.77 | M 1.88 | K 1.44 | A 1.58 | D 0.179
D3: E 2.14 | Q 1.92 | R 1.75 | I 1.95 | T 1.95
